In general, Kd refers to the free concentration of one partner at which half of the binding sites on the other are occupied at equilibrium, for simple one-to-one binding.

Where no end group is shown, it is not given here. The star is where a group is joined. Biotin = O=C1N[C@H]2[C@H](CS[C@H]2CCCCC(=O)*)N1

The source of these data is article PMC4425550 (Nature medicine, 2015).

In one experiment the test system is SPHK1/2. Kind of experiment: T cell transmigration with SPHK1/2 inhibitor. The class given is cell-based, human. As to conditions: 5 μM on endothelial cells, 30 min 37°C, washed, n=3.
For experiment [1], the system named is S1P receptor on T cells; stimulated endothelial cells. Kind of experiment: T cell transmigration with exogenous S1P, B cell depleted PBL. Format: cell-based, human.
Experiment [2] deals with S1PR1 on memory T cells (CD3+CD45RO+). The experiment can be described thus: S1PR1 surface expression on memory T cells on ICAM-1. The class given is cell-based, human.
A further experiment relates to αLβ2 (LFA-1). The experiment can be described thus: LFA-1 activation epitope. The settings on record: S1P 10 µM after CXCL10 80 ng/ml, n=4. Format: cell-based, human.
A further experiment relates to SPHK1. The experiment can be described thus: T cell transmigration with SPHK1 specific inhibitor. The class given is cell-based, human. The settings on record: 5 μM on endothelial cells, 30 min 37°C, washed, n=3.
The next experiment relates to S1P receptor. The experiment can be described thus: T cell transmigration with S1P receptor antagonist. Format: cell-based, human. The settings on record: W146 10 μM, 30 min, washed; n=3–7.
For experiment [3], the system named is TNF-α&IFN-γ treated HUVEC. The experiment can be described thus: PBL trans-endothelial migration, static, HUVEC. Format: cell-based, human.
The subject of the next experiment is B cells. The settings on record: T1D and rheumatoid arthritis; cited from earlier work.
A further experiment has as its target T1, recombinant CDH15-Fc (UniProt P55291 61-606).
T1 sequence (looked up): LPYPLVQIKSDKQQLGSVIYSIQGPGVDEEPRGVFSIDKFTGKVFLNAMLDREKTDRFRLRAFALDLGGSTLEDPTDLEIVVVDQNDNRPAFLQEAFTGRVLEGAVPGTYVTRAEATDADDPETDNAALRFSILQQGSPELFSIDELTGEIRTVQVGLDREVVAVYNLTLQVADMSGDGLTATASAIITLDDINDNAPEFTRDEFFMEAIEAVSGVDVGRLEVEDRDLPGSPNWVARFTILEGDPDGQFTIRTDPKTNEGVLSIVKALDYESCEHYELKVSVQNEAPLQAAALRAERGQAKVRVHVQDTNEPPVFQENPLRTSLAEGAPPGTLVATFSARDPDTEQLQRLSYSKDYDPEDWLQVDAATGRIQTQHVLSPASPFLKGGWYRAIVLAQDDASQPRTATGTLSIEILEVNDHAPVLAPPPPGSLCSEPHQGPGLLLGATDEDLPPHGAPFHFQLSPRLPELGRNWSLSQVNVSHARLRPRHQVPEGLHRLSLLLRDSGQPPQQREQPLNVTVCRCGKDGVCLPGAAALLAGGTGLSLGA
Kind of experiment: SPR.

Another experiment deals with HDMEC. Kind of experiment: PBL transmigration across HDMEC, static. As to conditions: TNF-α&IFN-γ stimulated HDMEC, n=3–4. Format: cell-based, human.
Experiment [4] deals with TNF-α&IFN-γ stimulated endothelial cells. The experiment can be described thus: PBL adhesion. Format: cell-based, human. As to conditions: adiponectin or PEPITEM.
The test system of experiment [5] is α4β1, αLβ2, CXCR3, DP-2 on PBL. Kind of experiment: Expression/function of integrins, CXCR3 and DP-2 on PBL, flow cytometry. The settings on record: adiponectin 15 μg/ml, n=3. The class given is cell-based, human. A general note: Flow cytometry measures light scatter and fluorescence of single cells or particles in a stream.
Experiment [6] deals with TNF-α&IFN-γ stimulated HUVEC. Kind of experiment: Gene expression of adhesion molecules and chemokines in HUVEC, real-time PCR. The class given is cell-based, human. The settings on record: TNF-α and IFN-γ stimulated endothelial cells. (In general: Quantitative PCR measures a nucleic acid by following its amplification.)
Experiment [7] deals with endothelial cells (TNF-α and IFN-γ stimulated). The class given is cell-based, human.
The test system of experiment [8] is lymphocytes from individuals with rheumatoid arthritis; endothelial cells. The experiment can be described thus: Ex vivo T cell transmigration, individuals with rheumatoid arthritis. Format: cell-based, human. The settings on record: adiponectin 15 μg/ml or PEPITEM 10 ng/ml, n=7–8.
The subject of experiment [9] is TNF-α&IFN-γ treated HUVEC. The experiment can be described thus: PBL trans-endothelial migration under flow. The settings on record: adiponectin pre-treated PBL, n=6.
The test system of experiment [10] is lymphocytes from individuals with T1D; endothelial cells. Kind of experiment: Ex vivo T cell transmigration, individuals with type-1-diabetes. As to conditions: adiponectin 15 μg/ml or PEPITEM 10 ng/ml, n=9–22.

`CCCCCCCCCCCCC/C=C/[C@@H](O)[C@H](CO)N(C)C` [N,N-Dimethylsphingosine]: the “ability of PEPITEM to inhibit T cell migration, SPHK1/2 inhibitor” value in the experiment on SPHK1/2 was “abolished the ability of PEPITEM to inhibit T cell migration”.
For `CCCCCCCCCCCCC/C=C/[C@@H](O)[C@@H](N)COP(=O)(O)O` [S1P, Sphingosine-1-phosphate], the “T cell migration on adding exogenous S1P” value in experiment [1] (S1P 0.0001 to 100 μM, 30 min, purified T cells / B cell depleted PBL, n=3–6) is “mimicked dose-dependently”. In addition, the “T cell transmigration at total circulating S1P concentration” value in [1] (S1P ≈0.2 μM) is listed as “inhibited T cell transmigration efficiently”. Moreover, the “surface S1PR1 in the presence of exogenous S1P” value in experiment [2] (CXCL10 80 ng/ml + S1P 10 μM, n=4) is reported as “high expression was maintained”. Also, in the experiment on αLβ2 (LFA-1), the “affinity of LFA-1, binding to ICAM-1” value was “down-regulates the affinity”.
In the case of `CCCCCCCCCCCCCC#CC(=O)[C@@H]1COC(C)(C)N1C(=O)OC(C)(C)C` [SPHK1 inhibitor, 2,2-dimethyl-4S-(1-oxo-2-hexadecyn-1-yl)-1,1-dimethylester-3-oxazolidinecarboxylic acid], the “ability of PEPITEM to inhibit T cell migration, SPHK1 inhibitor” value with SPHK1 is on record as “abolished the ability of PEPITEM to inhibit T cell migration”.
On to `CCCCCCc1cccc(NC(=O)[C@H](N)CCP(=O)(O)O)c1` [W146], for which the “T cell migration in the presence of adiponectin and PEPITEM with S1P receptor antagonist” value in the experiment with S1P receptor was “released T cells from the inhibitory effects of both adiponectin and PEPITEM”.
Take CXCL10: chemokine: the “surface S1PR1 on memory T cells on ICAM-1” value in experiment [2] (CXCL10 80 ng/ml, n=6) was “rapid up-regulation of surface S1PR1”.
Regarding “PEPITEM with a biotin conjugate on the N-terminus: PEPITEM with a biotin conjugate on the N-terminus (Biotin-SVTEQGAELSNEER)”, the “efficacy in functional migration assay” value in experiment [3] is listed as “full efficacy”.
On to “rituximab: monoclonal antibody, B cell depletion”, for which the “clinical effect of B cell depletion” value with B cells is recorded as “beneficial effects”.
As for Biotin-SVTEQGAELSNEER [N-terminus biotinylated PEPITEM (PEPtide Inhibitor of Trans-Endothelial Migration)], the Kd with recombinant CDH15-Fc was 109 µM.

B1: adiponectin: circulating adipokine (protein, UniProt Q15848 19-244, looked up)
Adiponectin: ETTTQGPGVLLPLPKGACTGWMAGIPGHPGHNGAPGRDGRDGTPGEKGEKGDPGLIGPKGDIGETGVPGAEGPRGFPGIQGRKGEPGEGAYVYRSAFSVGLETYVTIPNMPIRFTKIFYNQQNHYDGSTGKFHCNIPGLYYFAYHITVYMKDVKVSLFKKDKAMLFTYDQYQENNVDQASGSVLLHLEVGDQVWLQVYGEGERNGLYADNDNDSTFTGFLLYHDTN
On to B1, for which the PBL trans-endothelial migration entry in experiment [3] (TNF-α and IFN-γ stimulated HUVEC, static) is listed as “dose-dependently inhibited”. In addition, the “EC50 for inhibition of PBL trans-endothelial migration (mass concentration)” value in [3] (adiponectin, PBL pre-treated 1 h and washed, TNF-α and IFN-γ stimulated, static) turned out to be 0.94 µg/mL. Further, in the experiment with HDMEC, the “PBL transmigration on HDMEC” value is “evident”. Besides, in experiment [4], the “firm adhesion of PBL (surface adherent cells)” value is “more cells were firmly adherent to the apical surface of the endothelium”. For the same molecule, in experiment [5], the “expression and/or function of integrins (α4β1, αLβ2), CXCR3, DP-2 on PBL” value is “did not alter”. The “gene expression of adhesion molecules and chemokines” value in experiment [6] is reported as “did not modulate”. In addition, the “T cell migration with supernatants from adiponectin stimulated B cells” value in experiment [7] (B cells 100,000, adiponectin 15 μg/ml 1 h) was “as effective as addition of B cells themselves”. Besides, the “T cell migration after depleting B cells from PBL” value in experiment [7] (adiponectin treated, n=3–7) is recorded as “T cells were released from the inhibitory effects of adiponectin”. The “T cell migration after adding back purified B cells” value in experiment [7] (adiponectin, n=3–7) is recorded as “could reconstitute the adiponectin-dependent inhibition of T cell migration”. In [8], the “T cell migration, individuals with rheumatoid arthritis” value is reported as “no longer an inhibition of T cell migration”. The “PBL transmigration under flow” value in experiment [9] is “effects of adiponectin on PBL migration were seen”. The “T cell migration, individuals with T1D” value in [10] is reported as “no longer an inhibition of T cell migration”.
